Consider 1 molecule from publication PMC5799255, “Histone H5 is a potent Antimicrobial Agent and a template for novel Antimicrobial Peptides” (Scientific Reports, 2018).

Data set [1] in a line: Circular dichroism (CD) secondary structure analysis, CDSSTR deconvolution. The settings on record: for α-helix: room temperature, average of two independent measurements. Format: physicochemical. Here is the method: The secondary structure of histone H5 and the three preparations of histone H5-derived peptide H5(61–90) was investigated in different environments: sterile H2O, pH 7.4 (aqueous environment) and 30 mM SDS (mimicking the negatively charged bacterial membrane environment), by circular dichroism (CD) spectroscopy. […] Deconvolution of the spectral data with the CDSSTR program estimated the secondary structural components (α-helix, β-sheet, turns, etc.) of each peptide (Table 8). […] However, the α-helical proportions in the presence of 30 mM SDS were 76.9%, 84.2%, 75.5% and 84.7% for histone H5, H5(61–90) V1, H5(61–90) V2 and H5(61–90) V3, respectively.
The protocol followed for circular dichroism spectrometry was based on previously described methods. Circular dichroism (CD) measurements were performed using a Jasco-715 Spectropolarimeter (Japan Spectroscopic Co., Tokyo), in which the wavelengths scanned were 185 to 260 nm, using a scan speed of 100 nm/min, a bandwidth and data pitch of 1.0 nm, with a quartz cell (0.1 cm path length). Histone H5 and histone H5-derived peptides were dissolved in sterile ddH2O, pH 7.4, or 30 mM SDS. The CD spectrum of sterile ddH2O (buffer of the samples) was used as the blank. Each CD spectrum represents the average of two independent measurements, each in quintuplicate. The CD data was converted to molar ellipticity [θ], which was calculated using the following equation:1 [θ]=CDinmdeg/(10×pathlengthincm×Cr) where Cr = number of residues x molar concentration (mol/L).
In order to estimate secondary structure content, averaged CD spectra for each peptide were analysed using the CDSSTR software. This program analyzes the molar ellipticity [θ] values at each wavelength and compares them with a library of known protein secondary structures (α-helix, β-sheet, turns, etc.) in order to estimate the percentages of the various secondary structural components of the tested peptide samples.

For the next data set, the system named is Pseudomonas aeruginosa. The data set is described as follows: Scanning electron microscopy of treated planktonic bacteria. The following applies: 4 µg/mL, 3-hour incubation; three independent trials, each in duplicate. Format: cell-based. Here is the method:
(§1) In order to study the effect of histone H5 on bacterial membranes, Gram-positive and Gram-negative planktonic bacteria incubated with histone H5 were visualized by scanning electron microscopy (SEM). Representative SEM images of Listeria monocytogenes and Pseudomonas aeruginosa untreated (H2O control) and histone H5-treated bacterial cells are shown in Fig. 3. […] Similar observations were made in each of three independent trials, each performed in duplicate.
(§2) The same protocols as described in the preparation of the bacterial suspension and the broth microdilution assay were followed to prepare the histone H5-treated bacteria and the untreated control cells for SEM. After a 3-hour incubation of the 1:1 (v/v) ratio of planktonic bacteria and histone H5 (or 1:1 (v/v) ratio of planktonic bacteria and sterile H2O for the untreated control cells), 100 µL of this solution was filtered directly through an Isopore™ polycarbonate membrane filter ([…], EMD Millipore Co Cork, IRL) which was placed in a Swinny Stainless Steel 13 mm Filter Holder (EMD Millipore, MA, USA) connected to vacuum suction. The filter was then removed and placed onto a Kimwipe™ (Kimberly-Clark™ Professional Kimtech Science™) in a glass cell culture dish. The filters were fixed with 5% glutaraldehyde in 0.1 M sodium cacodylate, pH 7.5 (VWR, Radnor, PA, USA) overnight at 4 °C. […]

Another data set relates to Listeria monocytogenes. Described as above. The following applies: 4 µg/mL, 3-hour incubation; three independent trials, each in duplicate. Format: cell-based. Here is the method: as §1, §2
Data set [2] relates to Pseudomonas aeruginosa biofilms. Put plainly: MBEC assay (MBEC Assay Biofilm Inoculator), anti-biofilm activity. Format: cell-based. The following applies: 2 h treatment at 37 °C; for biofilm growth inhibition (log inhibition): versus untreated control, three independent trials, P < 0.04. Here is the method:
(§3) The anti-biofilm activity of histone H5 against P. aeruginosa and L. monocytogenes biofilms was assessed using the MBEC Assay Biofilm Inoculator (formerly the Calgary Biofilm Device (CBD)).
(§4) The preparation of the bacterial suspension was the same as described in the determination of the MIC and MBC, except that the bacterial suspension was adjusted to 10^5 CFUs/ml in LB broth (BHI broth for L. monocytogenes), not PBS. Wells of an MBEC™ Assay Biofilm Inoculator (Innovotech, Edmonton, AB), which contains pegs projecting downwards from the lid that serve as a surface for biofilm formation, were inoculated with 150 µL of bacterial suspension. The plate was incubated for 24 hours at 37 °C (110 rpm) for Pseudomonas aeruginosa bacterial biofilms or for 72 hours at 22 °C (60 rpm) for Listeria monocytogenes. Following incubation, planktonic cells were rinsed away by switching the 96-peg lid to a sterile 96-well microplate with 200 μL of sterile PBS per well. Pegs with established biofilms were incubated with 200 μL of histone H5 (dissolved in sterile water, pH 7.4), in wells of another sterile 96-well microplate containing serially two-fold dilutions of H5. Solutions of gentamicin and kanamycin served as positive controls for P. aeruginosa and L. monocytogenes, respectively, whereas sterile water (pH 7.4) served as a negative control. The device was incubated for 2 hours at 37 °C, 110 rpm for P. aeruginosa and at 22 °C, 60 rpm for L. monocytogenes. The 96-peg lid was then rinsed twice as described above and placed on a sterile 96-well microplate with 200 μL of LB broth (P. aeruginosa) or BHI broth (L. monocytogenes) per well. The microplate was sonicated for 10 minutes (P. aeruginosa) or 30 minutes (L. monocytogenes) in order to dislodge the biofilms from the pegs, after which the peg-lid was replaced with a sterile, normal lid. This microplate was incubated in the EON microplate reader overnight at 37 °C (206 oscillations/min). The EON microplate spectrophotometer with Gen5 data analysis software (BioTek, Winooski, VT, USA) was used to monitor the growth of bacteria by measuring the optical density at 600 nm every 30 minutes for 24 hours (P. aeruginosa) or 48 hours (L. monocytogenes). The lowest histone H5 concentration without visible bacterial growth was designated as the minimum biofilm eradication concentration (MBEC). Additionally, a standard curve for the number of viable bacteria in the inoculum versus bacterial growth lag time was generated, since every microplate additionally contained wells with serially ten-fold diluted bacteria obtained from the uninhibited biofilm control (sterile H2O). Bacterial growth inhibition for each histone H5 concentration tested was determined from this standard curve.

The subject of data set [3] is Listeria monocytogenes biofilms. The data set is described as above. The format is cell-based. Here is the method:
as §3, §4

B1: histone H5: erythrocyte-specific linker histone purified from chicken erythrocytes, 190 amino acids (protein, UniProt P02259 2-190, looked up)
Histone H5: TESLVLSPAPAKPKRVKASRRSASHPTYSEMIAAAIRAEKSRGGSSRQSIQKYIKSHYKVGHNADLQIKLSIRRLLAAGVLKQTKGVGASGSFRLAKSDKAKRSPGKKKKAVRRSTSPKKAARPRKARSPAKKPKATARKARKKSRASPKKAKKPKTVKAKSRKASKAKKVKRSKPRAKSGARKSPKKK
As to B1, the “Random Coil” value in data set [1] (30 mM SDS, CD) is given as 8.9%; in data set [1] (sterile ddH2O pH 7.4, CD), 32.2%. In addition, the Turns amounted to 4.5% in data set [1] (30 mM SDS, CD) and 22.4% in data set [1] (sterile ddH2O pH 7.4, CD). Moreover, the β-sheet in data set [1] (30 mM SDS, CD) amounted to 9.7%; in data set [1] (sterile ddH2O pH 7.4, CD), 22.7%. In addition, the α-helix is on record as 76.9% in data set [1] (30 mM SDS, CD 185-260 nm) and 23.4% in data set [1] (sterile ddH2O pH 7.4, CD 185-260 nm). The “bacterial cell morphology by SEM” value with Pseudomonas aeruginosa is “indentations in the bacterial membrane, small pore formation”; in the data set on Listeria monocytogenes it was “Multiple indentations in the bacterial membrane, membrane wrinkling and pronounced deformations”. Also, the figures for the “biofilm growth inhibition (log inhibition)” value in data set [2] (32 µg/mL), in data set [2] (64 µg/mL) and in data set [2] (128 µg/mL) were 0.7 ± 0.2 log inhibition, 1.6 ± 0.5 log inhibition and 2.3 ± 0.9 log inhibition, respectively. The MBEC is more than 128 µg/mL in data set [2] (biofilm grown 24 h at 37 °C on pegs, recovery growth OD600 24 h in LB broth, highest concentration 128 µg/mL, n = 3) and 19.1 ± 13.1 µg/mL in data set [3] (biofilm grown 72 h at 22 °C on pegs, 2 h treatment at 22 °C, recovery growth OD600 48 h in BHI broth, mean ± SD, n = 3). In addition, the MBEC/MIC ratio in data set [3] (MBEC 19.1 ± 13.1 µg/mL versus planktonic MIC) was approximately 5 fold.
